Data as given in PMC314469, “Protein Interaction Networks by Proteome Peptide Scanning” (PLoS Biology, 2004).

T1: Boi1 SH3 (BOI1_YEAST), P38041
T1 chain: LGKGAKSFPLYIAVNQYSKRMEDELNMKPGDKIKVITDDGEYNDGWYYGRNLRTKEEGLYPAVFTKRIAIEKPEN

T2: Boi2 SH3 (BOI2_YEAST), P39969
T2 chain: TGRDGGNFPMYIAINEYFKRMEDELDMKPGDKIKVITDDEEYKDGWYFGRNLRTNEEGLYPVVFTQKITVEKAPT

T3: Myo5 SH3 (MYO5_YEAST), Q04439
T3 chain: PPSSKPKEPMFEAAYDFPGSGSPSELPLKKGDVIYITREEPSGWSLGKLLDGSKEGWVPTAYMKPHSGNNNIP

T4: Rvs167 SH3 (RV167_YEAST), P39743
T4 chain: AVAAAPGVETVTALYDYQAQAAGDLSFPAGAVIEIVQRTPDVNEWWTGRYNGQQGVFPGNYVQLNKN

T5: Yfr024 SH3 (LSB3_YEAST), P43603
T5 chain: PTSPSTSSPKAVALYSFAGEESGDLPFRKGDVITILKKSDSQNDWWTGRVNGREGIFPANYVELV

T6: Yhr016c SH3 (YSC84_YEAST), P32793
T6 chain: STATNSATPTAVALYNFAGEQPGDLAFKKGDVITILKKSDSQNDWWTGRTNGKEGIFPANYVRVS


Assays:
Experiment in all cases: SPOT array
[1] = target: T1, Boi1 SH3 (BOI1_YEAST), P38041
[2] = target: T2, Boi2 SH3 (BOI2_YEAST), P39969
[3] = target: T3, Myo5 SH3 (MYO5_YEAST), Q04439
[4] = target: T4, Rvs167 SH3 (RV167_YEAST), P39743
[5] = target: Sho1 SH3 (SHO1_YEAST), P40073
Chain of Sho1 SH3 (SHO1_YEAST), P40073 (P40073 295-366): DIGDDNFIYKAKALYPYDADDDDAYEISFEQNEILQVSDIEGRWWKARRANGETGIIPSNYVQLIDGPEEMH

[6] = target: T5, Yfr024 SH3 (LSB3_YEAST), P43603
[7] = target: T6, Yhr016c SH3 (YSC84_YEAST), P32793

Binder | normalised SPOT signal, Boehringer light units (BLU); mean over the file's lines of this peptide [1] | normalised SPOT signal, Boehringer light units (BLU); mean over the file's lines of this peptide [2] | normalised SPOT signal, Boehringer light units (BLU); mean over the file's lines of this peptide [3] | normalised SPOT signal, Boehringer light units (BLU); mean over the file's lines of this peptide [4] | normalised SPOT signal, Boehringer light units (BLU); mean over the file's lines of this peptide [5] | normalised SPOT signal, Boehringer light units (BLU); mean over the file's lines of this peptide [6] | normalised SPOT signal, Boehringer light units (BLU); mean over the file's lines of this peptide [7]
ISADKGFPLIPSGY [YLR290C 162-175] | 30.1 | 16.8 | 113 | 32.4 | 32.9 | 38.2 | 14.4
ILKNRMNPEKPYEL [YBL034C 850-863] | 327 | 149 | 322 | 240 | 100 | 348 | 55.5
ISHNKLSPSEPILS [YER132C 703-716] | 0 | 34 | 206 | 48.3 | 19.4 | 0 | 22.7
INNNKMRPHLPPLS [YHR102W 535-548] | 1310 | 646 | 1000 | 1550 | 649 | 4850 | 1230
INGEKASPFLPSSL [YNL023C 312-325] | 100 | 23.2 | 184 | 50.3 | 19 | 12.1 | 33.2
IRTYKVVPLGPKAG [YBL088C 2501-2514] | 146 | 38.8 | 100 | 38.5 | 61.2 | 115 | 44.5
ILPPRIVPAIPKKA [YNL064C 352-365] | 227 | 29 | 3670 | 17600 | 38.5 | 3560 | 3210
INVEREAPMFPVPY [YHR014W 144-157] | 75.5 | 1.3 | 149 | 36.9 | 49.4 | 24.3 | 19.4
ILFERILPILPVES [YOL081W 29-42] | 152 | 16.2 | 340 | 457 | 5680 | 1840 | 1500
IPAPKLVPPPPRTR [YNR039C 117-130] | 17300 | 26.7 | 82300 | 294 | 99.1 | 3260 | 167
IPYEKRDPTSPAPL [YLR129W 367-380] | 43.8 | 7.7 | 114 | 58.4 | 29.3 | 51.8 | 26.9
INNTRLSPNSPTPP [YER164W 1330-1343] | 58.4 | 6.8 | 140 | 31.5 | 42.9 | 58.4 | 7.1
INIAKAHPNFPIAL [YKL182W 717-730] | 53.5 | 20.4 | 196 | 10.4 | 42.9 | 0 | 2.8
IQQNKQGPKIPFYL [YBR028C 374-387] | 107 | 12.3 | 86.9 | 23.5 | 19.8 | 19 | 5
INTFKTLPTKPEMQ [YDL202W 181-194] | 37.3 | 11.5 | 167 | 73.4 | 14500 | 110 | 14.5
IMDAKFHPFKPQLF [YMR049C 642-655] | 121 | 42.4 | 246 | 213 | 94.3 | 813 | 84.6
